Assay results as given in PMC10681739, “High-throughput data and modeling reveal insights into the mechanisms of cooperative DNA-binding by transcription factor proteins”.

B1: Table S3 B row 1223 (dsDNA)
DNA 1: ACTGCTCAAACCACAAACGATAGCAGCAAAGGCCTG
DNA 2: CAGGCCTTTGCTGCTATCGTTTGTGGTTTGAGCAGT
B2: Table S3 B row 3681 (dsDNA)
DNA 1: CGGCACCCTCCTTCGTCCCTGCCAACCGCCTCCACC
DNA 2: GGTGGAGGCGGTTGGCAGGGACGAAGGAGGGTGCCG
B3: Table S3 B row 1304 (dsDNA)
DNA 1: TCTGCTGCTTCTGTGGTTTACGGAATTTGTAACCCT
DNA 2: AGGGTTACAAATTCCGTAAACCACAGAAGCAGCAGA
B4: Table S3 B row 730 (dsDNA)
DNA 1: GTGCCTGACCACAAACCAACATTGCCTGTCTCAATT
DNA 2: AATTGAGACAGGCAATGTTGGTTTGTGGTCAGGCAC
B5: Table S3 B row 2453 (dsDNA)
DNA 1: GCCCTGTGGTTTTCTGAGGCCCCCGAGGAGGAGGTG
DNA 2: CACCTCCTCCTCGGGGGCCTCAGAAAACCACAGGGC
B6: Table S3 B row 2281 (dsDNA)
DNA 1: ACCCCAAACCCACAAACCCACCTGAAGGAACCAACT
DNA 2: AGTTGGTTCCTTCAGGTGGGTTTGTGGGTTTGGGGT
B7: Table S3 B row 518 (dsDNA)
DNA 1: GACCCACTGCGGTCATGCTGCTCCCTGCCCAACCCG
DNA 2: CGGGTTGGGCAGGGAGCAGCATGACCGCAGTGGGTC
B8: Table S3 B row 2134 (dsDNA)
DNA 1: CACCTTGTGGTTTCTCTGAGTGTCACACCTCCCCAG
DNA 2: CTGGGGAGGTGTGACACTCAGAGAAACCACAAGGTG
B9: Table S3 B row 1412 (dsDNA)
DNA 1: GTCGCCCCCACCGCAAGTATTTCAGCTTCCCTCCGC
DNA 2: GCGGAGGGAAGCTGAAATACTTGCGGTGGGGGCGAC
B10: Table S3 B row 2125 (dsDNA)
DNA 1: CAGGCTGCGGTTGAAATGCATCAGCTCTTTCGTGCC
DNA 2: GGCACGAAAGAGCTGATGCATTTCAACCGCAGCCTG
B11: Table S3 B row 1899 (dsDNA)
DNA 1: CCGCCGCGACCGCAGGCCTCCGTTCAGCCGGGGTAA
DNA 2: TTACCCCGGCTGAACGGAGGCCTGCGGTCGCGGCGG
B12: Table S3 B row 1458 (dsDNA)
DNA 1: TTCTCCACTGCCTTCTTTACCTCACCTACCACATAA
DNA 2: TTATGTGGTAGGTGAGGTAAAGAAGGCAGTGGAGAA
B13: Table S3 B row 2983 (dsDNA)
DNA 1: ACTCTGTGGTTTCATTGCCTGCCCGTAAATGCAGCT
DNA 2: AGCTGCATTTACGGGCAGGCAATGAAACCACAGAGT
B14: Table S3 B row 1595 (dsDNA)
DNA 1: CAGTAGGCTGCGGTTGCGCGCGCCGGGTGTGGGCCC
DNA 2: GGGCCCACACCCGGCGCGCGCAACCGCAGCCTACTG
B15: Table S3 B row 1736 (dsDNA)
DNA 1: CTCCTGTGGTTTCTAAACTGTCAGCATGTTGGCTTG
DNA 2: CAAGCCAACATGCTGACAGTTTAGAAACCACAGGAG
B16: Table S3 B row 2874 (dsDNA)
DNA 1: TCAGTGCGGTCAGGGAGTCTGTACTGCCTGGATGGC
DNA 2: GCCATCCAGGCAGTACAGACTCCCTGACCGCACTGA
B17: Table S3 B row 1205 (dsDNA)
DNA 1: TCAGCCTGTGGTTTCTGAAGACCTCCTCGAAGTCAT
DNA 2: ATGACTTCGAGGAGGTCTTCAGAAACCACAGGCTGA
B18: Table S3 B row 1255 (dsDNA)
DNA 1: GTCCAACCGCAGCCAGGCAAGCACACCCTGCCCCAC
DNA 2: GTGGGGCAGGGTGTGCTTGCCTGGCTGCGGTTGGAC
B19: Table S3 B row 3915 (dsDNA)
DNA 1: CACCTGACCACAAGGCACACGAAGATCCTTATCACA
DNA 2: TGTGATAAGGATCTTCGTGTGCCTTGTGGTCAGGTG
B20: Table S3 B row 3061 (dsDNA)
DNA 1: CCTCTGCCCAACCACAATTTTCCCTTCGTCAGCCTT
DNA 2: AAGGCTGACGAAGGGAAAATTGTGGTTGGGCAGAGG
B21: Table S3 B row 2109 (dsDNA)
DNA 1: ATGTCAGTAACCACAAACGAGCCACAGCATAAGAAC
DNA 2: GTTCTTATGCTGTGGCTCGTTTGTGGTTACTGACAT
B22: Table S3 B row 2419 (dsDNA)
DNA 1: GGCTACAGCAACCGCAAGGCATCACGGAGGTCGTAG
DNA 2: CTACGACCTCCGTGATGCCTTGCGGTTGCTGTAGCC
B23: Table S3 B row 2093 (dsDNA)
DNA 1: GTTAACCGCACTGCCGCTGGCTGGGTGTCCGCGGCA
DNA 2: TGCCGCGGACACCCAGCCAGCGGCAGTGCGGTTAAC
B24: Table S3 B row 2350 (dsDNA)
DNA 1: CCTGTCTTGTGGTTAAGTCAAGGCAGGCAATGCTTT
DNA 2: AAAGCATTGCCTGCCTTGACTTAACCACAAGACAGG
B25: Table S3 B row 207 (dsDNA)
DNA 1: GGCTCAAAACCACAGAGAAGCCTCCTATAGTGGGAT
DNA 2: ATCCCACTATAGGAGGCTTCTCTGTGGTTTTGAGCC
B26: Table S3 B row 1104 (dsDNA)
DNA 1: TTTCTGTGGTTTGGTTTCTATAGAGACACTTGCTGT
DNA 2: ACAGCAAGTGTCTCTATAGAAACCAAACCACAGAAA
B27: Table S3 B row 586 (dsDNA)
DNA 1: CTTGTCCCTTGTGGTTTTTTGCATTTGCTGTTCCCT
DNA 2: AGGGAACAGCAAATGCAAAAAACCACAAGGGACAAG
B28: Table S3 B row 3940 (dsDNA)
DNA 1: TCTCTAGTTCCCATTATTTCTGTGGTTAATTTCACC
DNA 2: GGTGAAATTAACCACAGAAATAATGGGAACTAGAGA
B29: Table S3 B row 2890 (dsDNA)
DNA 1: CGGTCTGACCACAAACTCTGCCTTACGGCAAGGCTG
DNA 2: CAGCCTTGCCGTAAGGCAGAGTTTGTGGTCAGACCG
B30: Table S3 B row 2560 (dsDNA)
DNA 1: TGAGGTTGTGGTTAGGCAGGACGAAGCCGTTTGTAG
DNA 2: CTACAAACGGCTTCGTCCTGCCTAACCACAACCTCA
B31: Table S3 B row 2945 (dsDNA)
DNA 1: GCTCCTCACTGCGGTCACAGCCACATGCTGCAGAGC
DNA 2: GCTCTGCAGCATGTGGCTGTGACCGCAGTGAGGAGC
B32: Table S3 B row 1212 (dsDNA)
DNA 1: GCTTTTCTGTGGTTTTTCTCACACGGGAATTGAGAG
DNA 2: CTCTCAATTCCCGTGTGAGAAAAACCACAGAAAAGC
B33: Table S3 B row 601 (dsDNA)
DNA 1: GGTTCCTTGCGGTTCGCGGCGTGCCGGGCGTGACAA
DNA 2: TTGTCACGCCCGGCACGCCGCGAACCGCAAGGAACC
B34: Table S3 B row 2108 (dsDNA)
DNA 1: GCTCGTTTGTGGTTACTGACACCCGGCCTTCATTTC
DNA 2: GAAATGAAGGCCGGGTGTCAGTAACCACAAACGAGC
B35: Table S3 B row 934 (dsDNA)
DNA 1: TCAGAACCGCAGACGTGGCCCTGCGTGGCTTCAGGC
DNA 2: GCCTGAAGCCACGCAGGGCCACGTCTGCGGTTCTGA
B36: Table S3 B row 3404 (dsDNA)
DNA 1: TTGGTCTTGTGGTTTTGCAAGGCAGGGGTGATATAT
DNA 2: ATATATCACCCCTGCCTTGCAAAACCACAAGACCAA
B37: Table S3 B row 1633 (dsDNA)
DNA 1: CCTTTACGTCCTTTTACTTCTAACCACAGAATTAAA
DNA 2: TTTAATTCTGTGGTTAGAAGTAAAAGGACGTAAAGG
B38: Table S3 B row 2175 (dsDNA)
DNA 1: AAATCAAAACCACAATCAGATACCACTTGCTGCCCA
DNA 2: TGGGCAGCAAGTGGTATCTGATTGTGGTTTTGATTT
B39: Table S3 B row 533 (dsDNA)
DNA 1: AGTTGTGAAACCACAAAACACAGAAAGGAGGTGGTC
DNA 2: GACCACCTCCTTTCTGTGTTTTGTGGTTTCACAACT
B40: Table S3 B row 2477 (dsDNA)
DNA 1: GGTGCGGTTAAGGCGAGGCTCCTTCTTTACTGTGAC
DNA 2: GTCACAGTAAAGAAGGAGCCTCGCCTTAACCGCACC
B41: Table S3 B row 871 (dsDNA)
DNA 1: ATGACCGATCAACCGCAAAGGCCGGGAATGCGTCAG
DNA 2: CTGACGCATTCCCGGCCTTTGCGGTTGATCGGTCAT
B42: Table S3 B row 2650 (dsDNA)
DNA 1: CTCCTGGGCTTGTGGTTAGAGCATCATGCAGCAAGG
DNA 2: CCTTGCTGCATGATGCTCTAACCACAAGCCCAGGAG
B43: Table S3 B row 875 (dsDNA)
DNA 1: CTCCTGGGCTTGTGGTTAGAACATGCTGCAGCAAAG
DNA 2: CTTTGCTGCAGCATGTTCTAACCACAAGCCCAGGAG
B44: Table S3 B row 2473 (dsDNA)
DNA 1: CCCACCCAGCAAGCCGTCCTAACCACAACAGCCCTC
DNA 2: GAGGGCTGTTGTGGTTAGGACGGCTTGCTGGGTGGG
B45: Table S3 B row 646 (dsDNA)
DNA 1: GCTCAAACAATAACCACAACACTTCATGCCTCTCTC
DNA 2: GAGAGAGGCATGAAGTGTTGTGGTTATTGTTTGAGC

molecular target: RUNX1 (Homo sapiens, UniProt Q01196); assay: gcPBM; 2 nM RUNX1; conditions: tags: N-terminal GST (pDEST15), kept (PMC6008103); label: surface-attached array probe
Sequence (Q01196 whole entry): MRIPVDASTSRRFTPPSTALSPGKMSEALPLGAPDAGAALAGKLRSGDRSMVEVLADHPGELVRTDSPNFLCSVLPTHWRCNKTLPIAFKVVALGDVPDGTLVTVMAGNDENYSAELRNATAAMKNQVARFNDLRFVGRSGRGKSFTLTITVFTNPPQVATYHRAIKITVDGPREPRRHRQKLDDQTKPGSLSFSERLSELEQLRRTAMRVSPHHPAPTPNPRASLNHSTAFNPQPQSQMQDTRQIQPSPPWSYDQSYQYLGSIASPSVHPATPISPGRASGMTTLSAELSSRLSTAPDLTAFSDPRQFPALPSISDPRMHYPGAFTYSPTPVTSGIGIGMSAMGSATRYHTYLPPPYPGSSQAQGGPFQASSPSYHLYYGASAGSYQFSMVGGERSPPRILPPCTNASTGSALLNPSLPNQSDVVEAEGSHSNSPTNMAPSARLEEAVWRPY

Point of comparison: B7, binding signal 6470 PBM fluorescence, median of replicate spots. Against it:
- B1 — higher, 6810 PBM fluorescence, median of replicate spots
- B2 — lower, 5850 PBM fluorescence, median of replicate spots
- B3 — lower, 5370 PBM fluorescence, median of replicate spots
- B4 — higher, 6950 PBM fluorescence, median of replicate spots
- B5 — lower, 5060 PBM fluorescence, median of replicate spots
- B6 — lower, 5110 PBM fluorescence, median of replicate spots
- B8 — higher, 6600 PBM fluorescence, median of replicate spots
- B9 — lower, 6050 PBM fluorescence, median of replicate spots
- B10 — lower, 4740 PBM fluorescence, median of replicate spots
- B11 — lower, 6120 PBM fluorescence, median of replicate spots
- B12 — lower, 5560 PBM fluorescence, median of replicate spots
- B13 — lower, 5930 PBM fluorescence, median of replicate spots
- B14 — lower, 5670 PBM fluorescence, median of replicate spots
- B15 — higher, 6800 PBM fluorescence, median of replicate spots
- B16 — lower, 5600 PBM fluorescence, median of replicate spots
- B17 — lower, 6080 PBM fluorescence, median of replicate spots
- B18 — higher, 8530 PBM fluorescence, median of replicate spots
- B19 — lower, 5610 PBM fluorescence, median of replicate spots
- B20 — lower, 6030 PBM fluorescence, median of replicate spots
- B21 — lower, 5490 PBM fluorescence, median of replicate spots
- B22 — lower, 5220 PBM fluorescence, median of replicate spots
- B23 — higher, 6840 PBM fluorescence, median of replicate spots
- B24 — lower, 5190 PBM fluorescence, median of replicate spots
- B25 — lower, 5720 PBM fluorescence, median of replicate spots
- B26 — higher, 8510 PBM fluorescence, median of replicate spots
- B27 — higher, 7790 PBM fluorescence, median of replicate spots
- B28 — lower, 5800 PBM fluorescence, median of replicate spots
- B29 — lower, 5700 PBM fluorescence, median of replicate spots
- B30 — higher, 7390 PBM fluorescence, median of replicate spots
- B31 — lower, 6290 PBM fluorescence, median of replicate spots
- B32 — higher, 8950 PBM fluorescence, median of replicate spots
- B33 — lower, 5880 PBM fluorescence, median of replicate spots
- B34 — higher, 8520 PBM fluorescence, median of replicate spots
- B35 — lower, 4860 PBM fluorescence, median of replicate spots
- B36 — higher, 8240 PBM fluorescence, median of replicate spots
- B37 — higher, 6510 PBM fluorescence, median of replicate spots
- B38 — lower, 6180 PBM fluorescence, median of replicate spots
- B39 — lower, 5640 PBM fluorescence, median of replicate spots
- B40 — lower, 6190 PBM fluorescence, median of replicate spots
- B41 — higher, 7280 PBM fluorescence, median of replicate spots
- B42 — lower, 6170 PBM fluorescence, median of replicate spots
- B43 — lower, 6070 PBM fluorescence, median of replicate spots
- B44 — lower, 5020 PBM fluorescence, median of replicate spots
- B45 — lower, 5040 PBM fluorescence, median of replicate spots
